Measurements taken from publication PMC6563020, “Protein Redox State Monitoring Studies of Thiol Reactivity” (Antioxidants, 2019).
Several values for one entry are separate records, joined by “and”; a condition that tells them apart may be missing. Identical values can stand only once. Each block holds one binder with its values, some of them ahead of it.

Columns and labels:
[1] = biological target: T1, Human peroxiredoxin 6 (Prx6) (human (endogenous in human pulmonary artery smooth muscle cells)), P30041; experiment: non-reducing SDS-PAGE and immunoblot; human pulmonary artery smooth muscle cells, with or without deferoxamine (50 uM, 30 min) and H2O2 (15 min); lysates on SDS-PAGE with or without 5% BME, immunoblot with Prx6 antibody; no Protein-SHifter; conditions: remark: other sources report otherwise
T1 chain: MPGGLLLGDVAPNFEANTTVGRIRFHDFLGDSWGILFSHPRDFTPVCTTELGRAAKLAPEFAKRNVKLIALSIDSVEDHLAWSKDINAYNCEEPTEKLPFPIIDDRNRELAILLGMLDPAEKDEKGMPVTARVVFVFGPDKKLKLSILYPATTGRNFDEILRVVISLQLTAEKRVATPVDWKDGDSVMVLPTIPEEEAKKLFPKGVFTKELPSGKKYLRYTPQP

[2] = biological target: T1, Human peroxiredoxin 6 (Prx6) (human …); experiment: SDS-PAGE and immunoblot; lysate proteins from untreated human pulmonary artery smooth muscle cells denatured with SDS and incubated with H2O2 (or BME) in a test tube for 15 min; Protein-SHifter Plus added, SDS-PAGE, immunoblot with Prx6 antibody; conditions: remark: other sources report otherwise
[3] = biological target: T1, Human peroxiredoxin 6 (Prx6) (human …); experiment: non-reducing SDS-PAGE and immunoblot; untreated (or PDGF-treated) human pulmonary artery smooth muscle cells; TCA-precipitated lysates labelled with Protein-SHifter Plus, SDS-PAGE without BME, immunoblot with Prx6 antibody; conditions: remark: other sources report otherwise
[4] = biological target: the molecule itself; experiment: non-reducing SDS-PAGE with Coomassie staining; purified recombinant CNBD, untreated or treated with H2O2 (1 mM) for 15 min; SDS-PAGE, Coomassie Blue; no Protein-SHifter
[5] = biological target: the molecule itself; experiment: SDS-PAGE and immunoblot; untreated rat pulmonary artery smooth muscle cells; lysates on SDS-PAGE, immunoblot with Prx6 antibody; no Protein-SHifter

stoichiometry N [1]: 2 | stoichiometry N [2]: 2 | stoichiometry N [3]: 2 and 3
B1: Human peroxiredoxin 6 (Prx6), P30041 1-224 (enzyme)
chain: T1 chain

B2: Cyclic nucleotide-binding domain (CNBD) of human HCN4 (hHCN4) (domain or fragment, UniProt Q9Y3Q4 571-708, looked up)
chain: GELSEPLREEIINFNCRKLVASMPLFANADPNFVTSMLTKLRFEVFQPGDYIIREGTIGKKMYFIQHGVVSVLTKGNKETKLADGSYFGEICLLTRGRRTASVRADTYCRLYSLSVDNFNEVLEEYPMMRRAFETVAL
notes: two cysteines; 19 kDa; Subcloned into pETM11; the printed mass of 19 kDa is more than that of residues 571-708 alone, which may mean that the tag was kept; also called hHCN4 CNBD; CNBD domain of hHCN4 channels; source: E. coli BL21 (DE3), purified (Ni2+-NTA, size-exclusion chromatography)
stoichiometry N [4]: 2 and 3

B3: Rat peroxiredoxin 6 (Prx6) (enzyme, UniProt O35244 1-224, looked up)
chain: MPGGLLLGDEAPNFEANTTIGHIRFHDFLGDSWGILFSHPRDFTPVCTTELGRAAKLAPEFAKRNVKLIALSIDSVEDHFAWSKDINAYNGAAPTEKLPFPIIDDKDRDLAILLGMLDPAEKDEKGMPVTARVVFIFGPDKKLKLSILYPATTGRNFDEILRVVDSLQLTASNPVATPVDWKKGESVMVLPTLPEEEAKQLFPKGVFTKELPSGKKYLRYTPQP
notes: Peroxiredoxin 6, rat, one cysteine only (catalytic Cys47); also called rat Prx6; source: endogenous, rat pulmonary artery smooth muscle cells (Cell Applications), in lysate
stoichiometry N [5]: 2
